Data on three molecules can be found in PMC8887125, “RBBP6 activates the pre-mRNA 3′ end processing machinery in humans” (Genes & Development, 2022).

What is called IC50 is the midpoint of a concentration-inhibition curve.

The target of one data set is T1, CPSF73 (Homo sapiens, UniProt Q9UKF6).
T1 construct: gene CPSF3; CPSF73 within the purified recombinant seven-subunit CPSF complex (mPSF + mCF); with CPSF subunits (CPSF100, symplekin, CPSF160, WDR33, CPSF30, hFip1) with CStF, CFIIm and RBBP6 (1-335)
Kind of data set: in vitro SV40 pre-mRNA cleavage assay with purified proteins, dose response by denaturing gel. The format is biochemical.

A further data set has as its target T2, RBBP6 1-335 (Homo sapiens, UniProt Q7Z6E9 1-335).
T2 sequence: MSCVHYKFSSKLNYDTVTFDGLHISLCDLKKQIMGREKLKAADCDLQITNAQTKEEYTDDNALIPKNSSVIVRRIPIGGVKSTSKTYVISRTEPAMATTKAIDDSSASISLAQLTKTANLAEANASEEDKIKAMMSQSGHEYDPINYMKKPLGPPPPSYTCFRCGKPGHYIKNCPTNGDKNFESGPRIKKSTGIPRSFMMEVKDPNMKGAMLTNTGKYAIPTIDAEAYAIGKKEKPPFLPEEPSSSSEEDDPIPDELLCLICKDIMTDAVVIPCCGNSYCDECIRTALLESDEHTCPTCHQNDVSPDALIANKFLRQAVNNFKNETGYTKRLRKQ
Kind of data set: EMSA; no CPSF; 100 nM RNA; EMSA: 100 nM RNA, 15 min on ice, 10% native PAGE at 4 C (binding buffer not stated); SEC: HEPES-NaOH pH 8.0, 50 mM NaCl, 0.5 mM TCEP; pull-down: 20 mM HEPES-NaOH pH 8.0, 50 mM NaCl, 0.5 mM TCEP, 2 mM Mg(OAc)2, 4 C. The following applies: protein: recombinant; tags: C-terminal TEV-StrepII; label: 5'-FAM. On the technique in general: A gel shift assay detects complexes by their altered migration in electrophoresis.

The target in the next data set is T3, RBBP6 Y228G (Homo sapiens, UniProt Q7Z6E9 1-335, Y228G).
T3 sequence: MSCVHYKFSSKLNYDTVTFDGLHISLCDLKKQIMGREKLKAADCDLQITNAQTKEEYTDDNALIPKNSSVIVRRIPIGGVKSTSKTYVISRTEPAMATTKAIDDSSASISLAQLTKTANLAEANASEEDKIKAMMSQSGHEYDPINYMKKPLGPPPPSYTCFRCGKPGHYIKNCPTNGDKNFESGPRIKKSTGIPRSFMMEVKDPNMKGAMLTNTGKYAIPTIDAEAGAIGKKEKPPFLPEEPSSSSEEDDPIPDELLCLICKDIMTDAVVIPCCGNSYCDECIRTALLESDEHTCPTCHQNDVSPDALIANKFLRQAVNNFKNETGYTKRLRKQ
Kind of data set: EMSA; no CPSF; binding unaffected vs WT; EMSA: 100 nM RNA, 15 min on ice, 10% native PAGE at 4 C (binding buffer not stated); SEC: HEPES-NaOH pH 8.0, 50 mM NaCl, 0.5 mM TCEP; pull-down: 20 mM HEPES-NaOH pH 8.0, 50 mM NaCl, 0.5 mM TCEP, 2 mM Mg(OAc)2, 4 C. Particulars: protein: recombinant; tags: C-terminal TEV-StrepII; label: 5'-FAM.

For the next data set, the target named is T4, RBBP6 P195G (Homo sapiens, UniProt Q7Z6E9 1-335, P195G).
T4 sequence: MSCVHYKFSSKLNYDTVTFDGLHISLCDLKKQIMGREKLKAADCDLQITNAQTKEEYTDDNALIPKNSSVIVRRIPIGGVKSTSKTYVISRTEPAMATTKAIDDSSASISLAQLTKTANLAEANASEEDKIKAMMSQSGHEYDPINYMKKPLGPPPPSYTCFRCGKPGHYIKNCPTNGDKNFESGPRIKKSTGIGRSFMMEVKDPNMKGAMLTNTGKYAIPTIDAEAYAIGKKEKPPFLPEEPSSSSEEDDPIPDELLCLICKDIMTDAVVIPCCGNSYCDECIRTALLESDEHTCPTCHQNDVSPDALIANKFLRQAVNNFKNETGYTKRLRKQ
The description is as above. Particulars: protein: recombinant; tags: C-terminal TEV-StrepII; label: 5'-FAM.

The next data set concerns the target T5, RBBP6 D43K R74E (Homo sapiens, UniProt Q7Z6E9 1-335, D43K;R74E).
T5 sequence: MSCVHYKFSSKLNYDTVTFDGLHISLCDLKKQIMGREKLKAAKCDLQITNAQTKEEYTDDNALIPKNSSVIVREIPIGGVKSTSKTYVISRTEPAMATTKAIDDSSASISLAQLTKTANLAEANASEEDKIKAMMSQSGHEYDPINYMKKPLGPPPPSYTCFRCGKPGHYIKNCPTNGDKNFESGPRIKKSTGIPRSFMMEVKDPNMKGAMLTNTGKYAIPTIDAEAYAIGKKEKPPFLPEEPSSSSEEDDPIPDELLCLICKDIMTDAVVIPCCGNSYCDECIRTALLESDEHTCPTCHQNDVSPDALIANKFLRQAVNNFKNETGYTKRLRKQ
Described as above. The following applies: protein: recombinant; tags: C-terminal TEV-StrepII; label: 5'-FAM.

In data set [1] the target is CPSF (seven subunits);RBBP6 1-335 (Homo sapiens;Homo sapiens, UniProt Q10570;Q9C0J8;O95639;Q6UN15-4;Q9UKF6;Q9P2I0;Q92797;Q7Z6E9 …, internal_change|). Kind of data set: size exclusion chromatography; 2.5 uM CPSF, 7.5 uM RBBP6, 5 uM RNA; RBBP6 substoichiometric; EMSA: 100 nM RNA, 15 min on ice, 10% native PAGE at 4 C (binding buffer not stated); SEC: HEPES-NaOH pH 8.0, 50 mM NaCl, 0.5 mM TCEP; pull-down: 20 mM HEPES-NaOH pH 8.0, 50 mM NaCl, 0.5 mM TCEP, 2 mM Mg(OAc)2, 4 C. Particulars: protein: recombinant;recombinant; tags: StrepII on WDR33 and symplekin;C-terminal TEV-StrepII; copies: 1;1;1;1;1;1;1;1; label: 5'-FAM.

Data set [2] has as its target T6, cleavage and polyadenylation specificity factor (CPSF), recombinant seven-subunit complex with hFip1 isoform 4 (human, UniProt Q10570 1-1443; Q9C0J8 1-576; O95639-2 1-244; Q6UN15 1-28; Q6UN15 44-393; Q9UKF6 …, F393K).
T6 construct: CPSF160, human; synthetic codon-optimised gene for the full-length protein; WDR33, human, residues 1-576 (unstructured region removed); CPSF30, human, isoform 2 (short isoform); synthetic gene for the isoform; hFip1, human; isoform 4 (UniProt Q6UN15-4) was built from residues 1-28 and 44-393 of the full-length protein; this piece is 1-28; second piece of isoform 4 (UniProt Q6UN15-4): residues …
Kind of data set: SEC; 2.5 µM CPSF, mCF or mCF_(symplekin ΔNTD) incubated with 10 µM SSU72 for 30 min on ice; Superose 6 Increase 3.2/300; HEPES-NaOH pH 8.0, 150 mM NaCl, 0.5 mM TCEP; peak fractions on SDS-PAGE. The following applies: both partners purified. For orientation: In gel filtration, larger molecules generally elute earlier.

Data set [3] deals with T7, mammalian cleavage factor (mCF), wild type: CPSF73, CPSF100 and symplekin (human, UniProt Q9UKF6 1-684; Q9P2I0 1-782; Q92797 1-1274).
T7 construct: CPSF73, human; synthetic gene for the full-length protein; CPSF100, human; symplekin, human; full coding region; also called mCFWT; source: Sf9 insect cells (baculovirus, pBig1), purified (Strep-Tactin, Resource Q, Superose 6); not shown: TEV site-StrepII (SII), C-terminal, kept; copies: + +
The description is as above. Particulars: both partners purified.

T7 sequence (Q9UKF6 whole entry, chain 1 of 3): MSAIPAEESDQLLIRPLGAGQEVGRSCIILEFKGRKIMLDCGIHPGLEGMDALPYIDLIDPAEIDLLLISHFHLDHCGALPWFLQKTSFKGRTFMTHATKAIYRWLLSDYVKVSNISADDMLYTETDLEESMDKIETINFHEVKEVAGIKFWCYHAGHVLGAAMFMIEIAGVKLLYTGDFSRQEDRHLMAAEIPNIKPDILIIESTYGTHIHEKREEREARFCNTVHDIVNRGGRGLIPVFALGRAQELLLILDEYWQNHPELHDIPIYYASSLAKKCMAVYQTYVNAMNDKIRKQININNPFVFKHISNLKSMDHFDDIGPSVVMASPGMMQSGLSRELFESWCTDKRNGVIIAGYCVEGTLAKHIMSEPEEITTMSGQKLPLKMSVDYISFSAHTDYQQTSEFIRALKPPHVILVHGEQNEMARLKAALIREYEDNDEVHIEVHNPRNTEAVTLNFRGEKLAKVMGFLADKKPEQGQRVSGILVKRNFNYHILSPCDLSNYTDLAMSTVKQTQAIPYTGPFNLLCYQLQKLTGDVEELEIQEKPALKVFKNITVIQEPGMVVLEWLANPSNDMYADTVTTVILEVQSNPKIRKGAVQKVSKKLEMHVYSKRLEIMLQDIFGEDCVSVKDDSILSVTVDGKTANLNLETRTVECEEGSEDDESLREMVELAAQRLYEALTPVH
T7 sequence (Q9P2I0 whole entry, chain 2 of 3): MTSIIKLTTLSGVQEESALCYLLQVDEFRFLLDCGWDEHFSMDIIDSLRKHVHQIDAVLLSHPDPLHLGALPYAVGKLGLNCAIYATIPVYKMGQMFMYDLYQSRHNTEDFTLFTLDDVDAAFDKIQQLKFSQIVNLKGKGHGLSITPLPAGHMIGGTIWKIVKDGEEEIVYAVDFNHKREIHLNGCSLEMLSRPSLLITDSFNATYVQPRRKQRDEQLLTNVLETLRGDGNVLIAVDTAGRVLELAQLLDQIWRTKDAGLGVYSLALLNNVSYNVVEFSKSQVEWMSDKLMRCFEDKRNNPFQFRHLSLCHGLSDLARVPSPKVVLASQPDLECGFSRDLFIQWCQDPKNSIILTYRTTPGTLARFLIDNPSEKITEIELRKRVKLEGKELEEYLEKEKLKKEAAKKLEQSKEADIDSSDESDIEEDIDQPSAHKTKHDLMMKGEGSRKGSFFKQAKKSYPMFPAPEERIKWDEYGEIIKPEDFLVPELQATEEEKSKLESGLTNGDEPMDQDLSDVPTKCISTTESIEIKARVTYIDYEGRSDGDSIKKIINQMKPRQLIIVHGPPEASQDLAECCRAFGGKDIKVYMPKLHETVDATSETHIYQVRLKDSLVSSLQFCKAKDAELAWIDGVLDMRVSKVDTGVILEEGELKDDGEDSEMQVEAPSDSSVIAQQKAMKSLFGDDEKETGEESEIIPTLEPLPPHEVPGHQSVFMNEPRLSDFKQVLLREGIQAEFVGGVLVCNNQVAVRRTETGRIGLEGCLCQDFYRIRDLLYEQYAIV
T7 sequence (Q92797 whole entry, chain 3 of 3): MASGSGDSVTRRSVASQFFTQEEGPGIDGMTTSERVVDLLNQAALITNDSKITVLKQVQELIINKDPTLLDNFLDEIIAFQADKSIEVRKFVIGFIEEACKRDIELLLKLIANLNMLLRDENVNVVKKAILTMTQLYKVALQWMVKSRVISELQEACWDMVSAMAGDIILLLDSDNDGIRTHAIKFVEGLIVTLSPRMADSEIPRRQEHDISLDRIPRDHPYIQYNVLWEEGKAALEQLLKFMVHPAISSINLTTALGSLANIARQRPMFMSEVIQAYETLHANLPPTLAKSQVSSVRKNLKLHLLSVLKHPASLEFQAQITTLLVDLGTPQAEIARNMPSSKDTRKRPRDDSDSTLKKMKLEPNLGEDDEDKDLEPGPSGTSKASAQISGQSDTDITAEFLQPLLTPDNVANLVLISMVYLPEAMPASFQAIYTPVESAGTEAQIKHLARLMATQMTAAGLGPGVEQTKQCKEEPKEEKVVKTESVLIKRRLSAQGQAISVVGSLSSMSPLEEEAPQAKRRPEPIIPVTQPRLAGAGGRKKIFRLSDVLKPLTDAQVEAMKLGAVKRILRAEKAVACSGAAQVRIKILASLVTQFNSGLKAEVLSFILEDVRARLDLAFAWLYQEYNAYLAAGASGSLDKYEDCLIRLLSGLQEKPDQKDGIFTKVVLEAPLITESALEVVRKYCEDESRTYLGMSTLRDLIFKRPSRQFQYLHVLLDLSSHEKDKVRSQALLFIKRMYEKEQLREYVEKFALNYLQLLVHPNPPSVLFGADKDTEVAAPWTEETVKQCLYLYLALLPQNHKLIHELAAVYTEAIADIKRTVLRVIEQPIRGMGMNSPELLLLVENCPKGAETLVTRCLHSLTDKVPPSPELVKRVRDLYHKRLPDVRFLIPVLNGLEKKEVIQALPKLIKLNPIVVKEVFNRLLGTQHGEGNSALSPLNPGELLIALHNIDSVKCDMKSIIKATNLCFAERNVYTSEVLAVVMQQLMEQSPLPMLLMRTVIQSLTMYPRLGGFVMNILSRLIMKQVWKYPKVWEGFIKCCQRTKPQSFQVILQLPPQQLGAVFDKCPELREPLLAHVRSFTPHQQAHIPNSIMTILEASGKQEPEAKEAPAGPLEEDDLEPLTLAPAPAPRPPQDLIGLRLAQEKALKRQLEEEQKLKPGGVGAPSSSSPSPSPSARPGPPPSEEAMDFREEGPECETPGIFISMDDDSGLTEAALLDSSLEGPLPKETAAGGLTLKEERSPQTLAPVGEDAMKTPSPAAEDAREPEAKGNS

Consider `CN1CCN(CCOc2c(Cl)cc(C(=O)N[C@@H](Cc3ccccc3)C(=O)O)c(O)c2Cl)CC1` [JTE-607 acid], for which the IC50 on CPSF73 was approximately 350 nM.
Turning to AUGAUCUAGGAGACACAAUAAAGGCAAUGUUUUUAUUUGUA (ssRNA) [5'-FAM-L3 41-nt RNA], the binding result (in the data set with RBBP6 1-335; with RBBP6 Y228G; with RBBP6 P195G; with RBBP6 D43K R74E; in data set [1]) was “binds” in each case.

B1: SSU72 (enzyme, human, UniProt Q9NP77 1-194, looked up)
chain: MPSSPLRVAVVCSSNQNRSMEAHNILSKRGFSVRSFGTGTHVKLPGPAPDKPNVYDFKTTYDQMYNDLLRKDKELYTQNGILHMLDRNKRIKPRPERFQNCKDLFDLILTCEERVYDQVVEDLNSREQETCQPVHVVNVDIQDNHEEATLGAFLICELCQCIQHTEDMENEIDELLQEFEEKSGRTFLHTVCFY
notes: SSU72, human; the coding region amplified from the synthetic full-length gene; also called human SSU72; phosphatase SSU72; source: E. coli BL21(DE3) Star, purified (HisTrap, 3C cleavage, Superdex 75); not shown: His6, N-terminal, cleaved
For B1, the binding result in data set [2] and in data set [3] was “binds” each time.
